# Measured values taken from US20240425885.
# Residue numbers refer to the chain shown, from its start.
# How the values were obtained:
# Experiment in all cases: cleavage_in_vitro
# [1] = tested on: T1, OMNI-90 (metagenomic, unknown); details: TXTL, PAM NNATTGYN
# T1 sequence: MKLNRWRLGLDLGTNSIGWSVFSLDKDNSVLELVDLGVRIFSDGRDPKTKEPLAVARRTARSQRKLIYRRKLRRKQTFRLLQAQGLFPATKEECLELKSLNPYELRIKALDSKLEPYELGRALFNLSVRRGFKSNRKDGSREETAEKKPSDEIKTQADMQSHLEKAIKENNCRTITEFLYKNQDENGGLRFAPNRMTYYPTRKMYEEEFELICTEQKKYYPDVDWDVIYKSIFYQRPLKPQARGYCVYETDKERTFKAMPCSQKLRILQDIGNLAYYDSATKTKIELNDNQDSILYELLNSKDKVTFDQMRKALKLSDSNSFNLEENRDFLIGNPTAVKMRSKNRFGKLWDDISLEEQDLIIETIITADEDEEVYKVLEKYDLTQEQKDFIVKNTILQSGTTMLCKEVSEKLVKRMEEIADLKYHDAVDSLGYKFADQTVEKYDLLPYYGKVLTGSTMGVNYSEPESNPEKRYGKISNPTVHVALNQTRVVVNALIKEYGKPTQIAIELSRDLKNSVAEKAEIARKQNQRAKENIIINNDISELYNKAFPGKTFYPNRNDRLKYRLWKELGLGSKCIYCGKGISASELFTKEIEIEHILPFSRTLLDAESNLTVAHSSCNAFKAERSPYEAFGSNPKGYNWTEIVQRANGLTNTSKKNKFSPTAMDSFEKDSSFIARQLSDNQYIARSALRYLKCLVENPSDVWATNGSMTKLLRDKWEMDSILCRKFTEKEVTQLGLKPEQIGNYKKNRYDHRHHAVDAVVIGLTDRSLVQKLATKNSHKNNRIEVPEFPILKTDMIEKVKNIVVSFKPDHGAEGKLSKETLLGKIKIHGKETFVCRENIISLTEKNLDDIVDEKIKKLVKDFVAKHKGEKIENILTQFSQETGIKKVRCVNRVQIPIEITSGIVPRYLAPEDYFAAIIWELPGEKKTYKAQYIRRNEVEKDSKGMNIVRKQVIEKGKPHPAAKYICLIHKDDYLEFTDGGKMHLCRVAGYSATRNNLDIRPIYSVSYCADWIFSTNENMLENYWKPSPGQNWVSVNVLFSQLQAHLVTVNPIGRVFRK
# [2] = tested on: T2, OMNI-105 (metagenomic, unknown); details: TXTL; PAM NRRRNNNN
# T2 sequence: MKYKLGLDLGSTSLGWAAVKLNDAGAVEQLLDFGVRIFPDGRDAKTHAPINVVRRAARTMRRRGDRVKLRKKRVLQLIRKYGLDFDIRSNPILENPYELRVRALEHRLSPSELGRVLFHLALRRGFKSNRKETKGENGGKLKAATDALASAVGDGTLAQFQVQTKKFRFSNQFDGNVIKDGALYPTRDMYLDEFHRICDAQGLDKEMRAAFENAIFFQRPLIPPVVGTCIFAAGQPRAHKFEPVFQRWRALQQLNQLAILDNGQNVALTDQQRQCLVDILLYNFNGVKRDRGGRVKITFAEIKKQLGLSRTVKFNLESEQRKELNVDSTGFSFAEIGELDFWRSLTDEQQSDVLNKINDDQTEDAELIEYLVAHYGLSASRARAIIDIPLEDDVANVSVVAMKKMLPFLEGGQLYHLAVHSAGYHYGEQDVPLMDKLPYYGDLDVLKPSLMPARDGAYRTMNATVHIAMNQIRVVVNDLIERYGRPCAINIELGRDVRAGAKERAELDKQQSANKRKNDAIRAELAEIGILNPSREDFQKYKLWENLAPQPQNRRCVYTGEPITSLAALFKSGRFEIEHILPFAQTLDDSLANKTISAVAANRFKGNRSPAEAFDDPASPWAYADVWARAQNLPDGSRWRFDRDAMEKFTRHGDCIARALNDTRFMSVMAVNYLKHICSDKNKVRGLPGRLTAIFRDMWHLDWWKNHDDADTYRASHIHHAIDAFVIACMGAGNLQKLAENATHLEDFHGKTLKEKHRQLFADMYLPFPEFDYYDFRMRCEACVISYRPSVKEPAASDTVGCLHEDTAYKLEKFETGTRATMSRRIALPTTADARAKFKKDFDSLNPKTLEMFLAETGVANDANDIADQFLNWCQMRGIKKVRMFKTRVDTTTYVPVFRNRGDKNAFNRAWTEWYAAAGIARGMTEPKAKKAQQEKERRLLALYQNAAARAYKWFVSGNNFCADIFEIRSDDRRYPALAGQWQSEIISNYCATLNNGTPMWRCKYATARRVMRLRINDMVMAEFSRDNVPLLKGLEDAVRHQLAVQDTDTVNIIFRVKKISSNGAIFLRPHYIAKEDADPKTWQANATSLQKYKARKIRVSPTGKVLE
# [3] = tested on: T3, OMNI-101 (metagenomic, unknown); details: TXTL; PAM NRRRNNNN
# T3 sequence: T2 sequence with A151T, P1080T
# [4] = tested on: T4, OMNI-104 (metagenomic, unknown); details: TXTL; PAM NRRRNYCN
# T4 sequence: T2 sequence with P1080T, Q1084K
Sequence,activity (1-depletion score) [2],activity (1-depletion score) [3],activity (1-depletion score) [4],other results
GGAAGAGCAGAGCCUUGGUCUCGUUGCAGGUUGACCGGGAAAGCGGUCAACCUGCUAACAAGGAAACCUUUAGUUUCCGCAAUAUGCUUUAAUAUUCGUUGAGAUUAUUGCGUGAAUAUAGAUAGCACACAAUGCUUUUU / GGAAGAGCAGAGCCTTGGTCTCNNNNNNNN / NNNNNNNNGAGACCAAGGCTCTGCTCTTCC [T2 sgRNA 1 V3 ; T2 protospacer + 8N PAM library (pbPOS T2)],–,–,–,activity (1-depletion score) ([1]; terminal hairpin deleted): 0.95
GGAAGAGCAGAGCCUUGGUCUCGUUGCAGGUUGACCGGGAAAGCGGUCAACCUGCUAACAAGGAAACCUUUAGUUUCCGCAAUAUGCUUUAAUAUUCGUUGAGAUUAUUGCGUGAAUAUAGAUUUUU / GGAAGAGCAGAGCCTTGGTCTCNNNNNNNN / NNNNNNNNGAGACCAAGGCTCTGCTCTTCC [T2 sgRNA 1 V4 ; T2 protospacer + 8N PAM library (pbPOS T2)],–,–,–,activity (1-depletion score) ([1]; two last hairpins deleted): 0.96
GGAAGAGCAGAGCCUUGGUCUCGUUGCAGGUUGACCGGGAAAGCGGUCAACCUGCUAACAAGGAAACCUUUAGUUUCCGCAAAAUGCUUUUAUAUUCGUUGAGAUUUUUGCGUGAAUAUAGAUAGCACACAAUGCAAAGGGAAAGCUACGGCUUUCCCCCUUUUUUUU / GGAAGAGCAGAGCCTTGGTCTCNNNNNNNN / NNNNNNNNGAGACCAAGGCTCTGCTCTTCC [T2 sgRNA 1 V1 ; T2 protospacer + 8N PAM library (pbPOS T2)],–,–,–,activity (1-depletion score) [1]: 0.95
GGAAGAGCAGAGCCUUGGUCUCGUUGCACCUAGACGAAAGUCUUUGUGUUAAUAAGAACCUUUCUUUGGAAAGGAGUUCACCAUUUACAAACAGGCACUUCGGUGUCUGUUUUUU / GGAAGAGCAGAGCCTTGGTCTCNNNNNNNN / NNNNNNNNGAGACCAAGGCTCTGCTCTTCC [T2 sgRNA 11 V1 ; T2 protospacer + 8N PAM library (pbPOS T2)],0.98,0.96,1,–
GGAAGAGCAGAGCCUUGGUCUCGUUGCAGGUUGACCGGGAAAGCGGUCAACCUGCUAACAAGGAAACCUUUAGUUUCCGCAAUAUGCUUUAAUAUUCGUUGAGAUUAUUGCGUGAAUAUAGAUAGCACACAAUGCAAAGGGAAAGCUACGGCUUUCCCCCUUUUUUUU / GGAAGAGCAGAGCCTTGGTCTCNNNNNNNN / NNNNNNNNGAGACCAAGGCTCTGCTCTTCC [T2 sgRNA 1 V2 ; T2 protospacer + 8N PAM library (pbPOS T2)],–,–,–,activity (1-depletion score) [1]: 0.94
GGAAGAGCAGAGCCUUGGUCUCGUUGCACCUAGACACCGAGAAAUCGGUGUCUUUGUGUUAAUAAGAACCUUUCUUUGGAAAGGAGUUCACCAUUUACAAACAGGCACUUCGGUGUCUGUUUUUU / GGAAGAGCAGAGCCTTGGTCTCNNNNNNNN / NNNNNNNNGAGACCAAGGCTCTGCTCTTCC [T2 sgRNA 13 V1 ; T2 protospacer + 8N PAM library (pbPOS T2)],1,0.98,0.92,–
GGAAGAGCAGAGCCUUGGUCUCGUUGCACCUAGACACCGAAAGGUGUCUUUGUGUUAAUAAGAACCUUUCUUUGGAAAGGAGUUCACCAUUUACAAACAGGCACUUCGGUGUCUGUUUUUUU / GGAAGAGCAGAGCCTTGGTCTCNNNNNNNN / NNNNNNNNGAGACCAAGGCTCTGCTCTTCC [T2 sgRNA 14 V1 ; T2 protospacer + 8N PAM library (pbPOS T2)],0.94,0.97,0.98,–
